Assay results: patent publication US20140105900A1 (Amgen, published 2014)

B1: 34H7 (antibody, V domains shown)
VH: EVQLVQSGAELKKPGESLKISCKGSGYRFTSYWIGWVRQMPGKGLEWMGIIYPGDSDTRYSPSFQGQVTISADKSISTAYLQWHSLKVSDTAMYYCASPGYSTRWYHFDYWGQGTLVTVSS
VL: EIVMTQSPATLSVSPGERATLSCRASQSISSSLVWYQQKPGQAPRLLIYGASTRATGIPARFSGSGSGTEFSLTISSLQSEDFAVYYCQQYNNWPLLTFGPGTKVDIKR
notes: Fully human antibody from XenoMouse, subcloned as a full IgG construct; also called anti-IL-21 receptor antibody 34H7; IL-21R mAb 34H7
B2: 29G8 (antibody, V domains shown)
VH: QVQLVESGGGVVQPGRSLRLSCAASGFTFSSYGMHWVRQAPGKGLEWVAVIWYDGSNKYYVDSVKGRFTISRDNSKNTLYLQMNSLRAEDTAVYYCARDRGYYDSGSYYMDYWGQGSLVTVSS
VL: DIQMTQSPSSVSASVGDRVTITCRASQGISTWLAWYQQKPGKAPKLLIYAASILQRGVPSRFSGSGSGTDFTLTISSLQPEDFTTYYCQQANSFPRTFGQGTKVEIKR
notes: Fully human antibody from XenoMouse, subcloned as a full IgG construct; also called anti-IL-21 receptor antibody 29G8; IL-21R mAb 29G8
B3: 30G3 (antibody, V domains shown)
VH: QVQLQESGPGLVKPSETLSLTCTVSGGSISSYYWSWIRQPAGKGLEWIGRIYTSGSTYFNPSLKSRVTMSVDTSKNQFSLKLSSVTAADTAVYYCARGRELLDYWGQGTLVTVSS
VL: EVVLTQSPGTLSLSPGERATLSCRASQSFSSSYLAWYQQKPGQAPRLLIFGASSRATGIPDRFSGSGSGTDFTLTINRLEPEDFALYYCQQYGRSPLTFGGGTKVEIKR
notes: Fully human antibody from XenoMouse; also called anti-IL-21 receptor antibody 30G3; IL-21R mAb 30G3

biological target: T1, recombinant cynomolgus IL-21 receptor (cynomolgus monkey, UniProt G7Q0S8 41-253); experiment: Biacore, recombinant cyno IL-21R
T1 construct: construct not described; also called cyno IL-21R

Binder | Kd [nM]
B1 | 0.043
B2 | 0.166
B3 | 0.078

biological target: cynomolgus IL-21 receptor on cells (cynomolgus monkey, UniProt G7Q0S8 41-559); experiment: cell-based or functional assay

Binder | cyno pSTAT3 IC-50, B [pM] | cyno pSTAT3 IC-50, T [pM]
B1 | 4 | 13
B2 | 65 | 286
B3 | 9 | 33

biological target: T2, human IL-21 receptor on cells (human, UniProt Q9HBE5 20-538); experiment: cell-based or functional assay
T2 sequence (Q9HBE5 20-538 limits assumed): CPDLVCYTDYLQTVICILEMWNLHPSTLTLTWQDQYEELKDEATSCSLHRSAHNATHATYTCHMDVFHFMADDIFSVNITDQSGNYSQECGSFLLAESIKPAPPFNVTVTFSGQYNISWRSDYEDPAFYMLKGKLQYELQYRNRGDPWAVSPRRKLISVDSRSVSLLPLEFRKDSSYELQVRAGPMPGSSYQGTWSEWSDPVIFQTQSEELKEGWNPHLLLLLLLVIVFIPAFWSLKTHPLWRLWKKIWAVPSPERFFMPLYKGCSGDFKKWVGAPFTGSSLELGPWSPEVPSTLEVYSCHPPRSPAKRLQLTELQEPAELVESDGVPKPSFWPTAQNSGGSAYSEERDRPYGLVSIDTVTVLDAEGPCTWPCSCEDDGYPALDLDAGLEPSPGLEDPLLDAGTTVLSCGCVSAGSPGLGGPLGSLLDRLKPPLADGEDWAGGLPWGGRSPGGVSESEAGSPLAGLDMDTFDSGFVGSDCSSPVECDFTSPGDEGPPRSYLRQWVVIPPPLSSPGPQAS

Binder | B cell (IgA) IC-50, exp1 [pM] | B cell (IgA) IC-50, exp2 [pM] | B/T co-culture (IgA) IC-50, exp1 [pM] | B/T co-culture (IgA) IC-50, exp2 [pM] | B/T co-culture (IgA) IC-50, exp3 [pM] | B/T co-culture (IgA) IC-50, exp4 [pM] | B/T co-culture (IgA) IC-50, exp5 [pM] | CD8 T (IFNγ) IC-50, exp1 [pM] | CD8 T (IFNγ) IC-50, exp2 [pM] | hu pSTAT3 IC-50, B [pM]
B1 | 18 | 49 | 16 | 9 | 11 | 17 | 10 | 79 | 27 | 14
B2 | 22 | 47 | 29 | 8 | 17 | 17 | 14 | 139 | 48 | 137
B3 | 58 | 31 | 44 | 31 | 24 | 24 | 19 | 203 | 35 | 36

same assay, conditions: not given

Binder | hu pSTAT3 IC-50, T [pM]
B1 | 8
B2 | 33
B3 | 10

biological target: T2, human IL-21 receptor on cells; experiment: flow cytometry on Ramos cells, antibody titration, anti-huIgG detection
Procedure: Assay protocols ¹B/T co-culture. Mitomicin C-treated human T cells were cultured with B cells in anti-CD3 antibody pre-coated 96-well plates as described in Kuchen et al. (2007) J Immunol 179: 5886, incorporated herein by reference in its entirety. Supernatants were collected for IgA ELISA on day 6. ²B cell IgA production. Negatively selected human peripheral blood B cells were cultured in vitro with IL-21 and CD40L. On day 6, supernatants were collected for human IgG ELISA analysis. ³CD8 IFN-γ production. Purified human CD8 T cells were cultured with IL-21. IFN-γ was measured in the supernatant on day 3. ⁴Whole blood pSTAT3 stimulation. Human or cynomolgus monkey whole blood was pre-incubated with IL-21R mAbs titrations at 37° C. for 1 hr and stimulated with IL-21. Cells were fixed, permeabilized and stained for pSTAT3 and cell surface markers. ⁵Cell based KD measurement. Ramos cells (Human Burkitt's lymphoma) were incubated with a titration of IL-21R mAbs and bound antibody was detected with anti-huIgG by flow cytometry.

Binder | Kd [nM]
B1 | 0.015
B2 | 0.016
B3 | 0.033

biological target: T3, recombinant human IL-21 receptor (human, UniProt Q9HBE5 20-232); experiment: Biacore, recombinant human IL-21R
T3 construct: Used in Biacore and KinExA ('recombinant IL-21R', column 'hu'); also called recombinant IL-21R; hu IL-21R
T3 sequence (Q9HBE5 20-232 limits assumed): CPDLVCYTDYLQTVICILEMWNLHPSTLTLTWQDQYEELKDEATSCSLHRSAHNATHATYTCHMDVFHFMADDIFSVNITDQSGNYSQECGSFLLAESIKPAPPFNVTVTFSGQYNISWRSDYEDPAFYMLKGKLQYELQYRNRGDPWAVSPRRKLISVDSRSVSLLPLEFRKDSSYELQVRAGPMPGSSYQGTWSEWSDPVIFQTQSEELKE

Binder | Kd [nM]
B1 | 0.035
B2 | 0.078
B3 | 0.016

biological target: T3, recombinant human IL-21 receptor; experiment: KinExA, recombinant human IL-21R

Binder | Kd [nM]
B1 | 0.006
B2 | 0.026
B3 | 0.015
